{
  "source": "the DeepSol protein solubility set",
  "data": [
    {"assay": "soluble on expression in E. coli; label from the status in PepcDB or PDB records", "values": [
      {"sequence": "MGSDKIHHHHHHMTTLPYFQPAASPASAGEGSASLSPVIALKDLVARLDREQRKAQELLASLGFALRSFTNLGQFLELIPLIASRVTDTEGSLLLTFRPDGRFWQAQLHCTDPRLAETLNRIPASLPVGTAPSGSPTEAIAEIDRQVQRCLGRNAQLFATAVLVRNQARGRLYVFSLDGQYSWNESRQKLVRLVADQTAVAIENDALTTELRQKERLDRELEIGAEIQLQLLPSQCPAIEGLEIAAACRTASRVGGDYYDFIPTRTHSDEQGRLQPDAGSPWAIAIGDIMGKGVPAGLIMTMLRGMLRAEVLNRHRPSRVLAHLNQVIYADLEHSNRFATLFYSEYDPSSRLLTFSNAAHNPPLLWQQATGTLKRLDTFGMMIGLEADNAYAEQHVQLQPGDVVLYYTDGLTDAADPRGNRFDEENVAIAFREACRRRLSAEALLADLFNRVQRFIGPDRHNEDDMTLVVLRAV", "soluble on expression in E. coli": "not soluble"},
      {"sequence": "MAHHHHHHMKEKYTITPLARRTPNGVLTQVLTEARREAAERLRGMQEMKFTICTDIEEVLFKGRVHVNEMRLNDFLTREPDGRGVVDTNRDVLLEEFFKDPTKYIRDKGALNEIQAFGHYLSMKRAVKGEVIFDEDIRELCDRVSTTYRGGHWLLRR", "soluble on expression in E. coli": "not soluble"},
      {"sequence": "MAKKTKQRRPMGFPPGPPGLPFIGNIYSLAASSELPHVYMRKQSQVYGEIFSLDLGGISTVVLNGYDVVKECLVHQSEIFADRPCLPLFMKMTKMGGLLNSRYGRGWVDHRRLAVNSFRYFGYGQKSFESKILEETKFFNDAIETYKGRPFDFKQLITNAVSNITNLIIFGERFTYEDTDFQHMIELFSENVELAASASVFLYNAFPWIGILPFGKHQQLFRNAAVVYDFLSRLIEKASVNRKPQLPQHFVDAYLDEMDQGKNDPSSTFSKENLIFSVGELIIAGTETTTNVLRWAILFMALYPNIQGQVQKEIDLIMGPNGKPSWDDKCKMPYTEAVLHEVLRFCNIVPLGIFHATSEDAVVRGYSIPKGTTVITNLYSVHFDEKYWRDPEVFHPERFLDSSGYFAKKEALVPFSLGRRHCLGEHLARMEMFLFFTALLQRFHLHFPHELVPDLKPRLGMTLQPQPYLICAERRHHHHHH", "soluble on expression in E. coli": "soluble"},
      {"sequence": "MDLVFRPERYPFLTQDLPGVGGEIRVEPEDFQVEEVPAYLPKGEGEHLYLLLEKEGRTTREVLEFLRDEVGVPEKEIGVAGLKDKRAKTRQWFSIPRKYEDALCLLENLQGVRLLAADLHTNKLRTGHLKGNRFHILIRRPKGGVAEAEAVLKRLAEKGVPNYYGPQRFGLGGLNPVRGYKLVKEGKGRGSPWLKRFLIGSLQSLLFNDWVALRMALGLYDRVVPGDWAKKHATGGEFLVEDPGEAERALRLEISATGPLFGKKYPEAQGEARAIEDEVLARYGLKREEFRARRGARRPIRVPLAEWKVEEAPEGLWLSFFLPKGSYATSLLREVMKVEALDHLEAEPAPEDAEGL", "soluble on expression in E. coli": "soluble"},
      {"sequence": "MSTGSTKLRNVDAVIKKGKPFSILLLGTDTGALGRGKDFSARTDTMIVATINPKKESMTLTSIPRDTQVMIDGQSQKINAAYTIGGASGAVKSVEKLLDVPIDFYVLLNMGGLKQIINAMGGVTVTPKLTFKYGNANVKKGVKIKLNGAAALDYSRMRYDDPQGDYGRQKRQQQVIMAMVSQSNSLGSIANIEKITKKLAKNMRTDLTWNDMVALDTKYKNASHHAKSYTVQGTDATIDGLSYQVASSSERYKNSKRIRKALGLSNSNLTESVFSETASITTGSSSSSSSSSSTTTSSDTTTYGTSTTQDTTTQDQTTTQDQTTTNQYLEHHHHHH", "soluble on expression in E. coli": "soluble"},
      {"sequence": "MLKIATFNVNSIRSRLHIVIPWLKENKPDILCMQETKVENRKFPEADFHRIGYHVVFSGSKGRNGVAIASLEEPEDVSFGLDSEPKDEDRLIRAKIAGIDVINTYVPQGFKIDSEKYQYKLQWLERLYHYLQKTVDFRSFAVWCGDMNVAPEPIDVHSPDKLKNHVCFHEDARRAYKKILELGFVDVLRKIHPNERIYTFYDYRVKGAIERGLGWRGDAILATPPLAERCVDCYADIKPRLAEKPSDHLPLVAVFDV", "soluble on expression in E. coli": "soluble"},
      {"sequence": "MGSSHHHHHHSSGLVPRGSHMASKNVSIIGSPLAAGQPLGGVQLACDDLRKLGLHNVIDVLGWKYEDIGNIDNGDNEMKQEKKTNNYINNNDNNNDNNNDNNNDNNNNCYIPNGVIKEKKHDLSNNKMNGYVNHNFYGNYEENNVISTNDKYKNNCYYDNIRNIKEIGIFSKNLFDTMSNELRKKNFVLNIGGDHGVAFSSILSSLQMYQNLRVIWIDAHGDINIPETSPSGNYHGMTLAHTLGLFKKKVPYFEWSENLTYLKPENTAIIGIRDIDAYEKIILKKCNINYYTIFDIEKNGIYNTICTALEKIDPNSNCPIHISLDIDSVDNVFAPGTGTVAKGGLNYREINLLMKILAETKRVVSMDLVEYNPSLDEVDKKVHGDSLPILDNATKTGKLCLELIARVLGYDIV", "soluble on expression in E. coli": "soluble"},
      {"sequence": "MGHHHHHHMSADFGLIGLAVMGQNLILNAADHGFTVCAYNRTQSKVDHFLANEAKGKSIIGATSIEDFISKLKRPRKVMLLVKAGAPVDALINQIVPLLEKGDIIIDGGNSHFPDSNRRYEELKKKGILFVGSGVSGGEEGARYGPSLMPGGSEEAWPHIKNIFQSISAKSDGEPCCEWVGPAGAGHYVKMVHNGIEYGDMQLICEAYDIMKRLGGFTDKEISDVFAKWNNGVLDSFLVEITRDILKFDDVDGKPLVEKIMDTAGQKGTGKWTAINALDLGMPVTLIGEAVFARCLSALKNERIRASKVLPGPEVPKDAVKDREQFVDDLEQALYASKIISYAQGFMLIREAAATYGWKLNNPAIALMWRGGCIIRSVFLGQITKAYREEPDLENLLFNKFFADAVTKAQSGWRKSIALATTYGIPTPAFSTALSFYDGYRSERLPANLLQAQRDYFGAHTFRVLPECASDNLPVDKDIHINWTGHGGNVSSSTYQA", "soluble on expression in E. coli": "soluble"},
      {"sequence": "MESCLDIFKIVIGPSSSRTVGPMRAACHFISLLREQETLPLIREIEIELYGALSLSRKCHNVDTALYLGLLGCQPENVDLRSYMAVIKRAENENKIELPLSDAGGITIKVKIIANHQAHPGHPYAMTFRARDDYFTVYEETWFSTGAGQVRKHGEPLTPSLPLRTVSPFEFSHAAQLLALCRRNGLSVAALMMKNELCRHSPQTLQNYLAQIWDVMQQAVYRGLHTEGVLPGPYQVPRRACALHKTLQANRSASDFLTALNWVNAFAIAVSEENASGGQIVTAPTNGACGIIPAALCWYDKFVTPLEPGALTRFFLTAAAIAMLFKQNASILGSEVGCQGEIGVACSMAAAGLAELMGASVEQTLSAAEIAMEHHLGLTCDPLGGQVQIPCIERNAISAVKAINAATMAMSRVSEPCISLDEIIAAMYETGKDMSAKYRETYHGSLGKIQPRKRG", "soluble on expression in E. coli": "not soluble"},
      {"sequence": "EKMTRDEIEYMLTNSEETLDADEIEMLQGVFSLDELMAREVMVPRTDAFMVDINDDSSDIIQTILNERFSRIPVYDDDKDKIIGIIHTKNLLNAGFKEGFDHINLRRILQEPLFVPETIVVNDLLTALKNTQNQMAILLDEYGGVAGLVTLEDLLEEIVGEIDDETDKTAISVREIADNTYIVLGTM", "soluble on expression in E. coli": "not soluble"},
      {"sequence": "MAHHHHHHMPRSIRVRHGDPDVAEGALTIEVPSSPDADNKAVGDARTPVASLGASSAFFTTYSTVSGDVAHPCANIASGAAPSDEVSPLTSALFMSVDSTPLASSCATKTAASLVNVRSFNSSATVVSVELPNLQSEHAAMTATSCFATRSRDTEAPAAAAAASATNPPPLRHPLGSAPIEGGGGQTQLAGEADTPVQDRTAAPSSSPLMAKASVSASFSGDSSKRCSHTVQSGLSDDLQLTQTTCYLPLLGSAGSREVQRSGDDIDARWVAERESVPAAEPARTTVGNDSFPAEGSEGAMVATTQSASTDVRAAACTVPASNISNTVAATATDVAAPLCPKFEVLATVPAPLVGRVPIRIHWCCAAHWRAVQRTERGAQWAVDGAPADVYCVPAHRNAKRERRSLSASCVEAKSESERGGRSFSGTGENTAWLRDAAGEVKPQHWEVRALSSAVGAPGSTLYDDSNYDAEHEKHGSLKTRSGLPHVHSHSCTDMLTCEFCGHAVERYHSEDCDDEASEASTSMTQTGRACSAPPGRFQDCHGCASAEARSLSSSKIVAFRSNQPSILTPQLLLSSSESAETTVDLDMSGAISSVDVPSWSDSAREEALMAAVALLQ", "soluble on expression in E. coli": "not soluble"},
      {"sequence": "MGSDKIHHHHHHMSLLALFSLFGCDNAANTATICKNNPELCDDLHRDSWCRYERADLIQKRYTLKNTPSPTGKQIYQHLINLENYSKCIELAAGVQHIMHPERTNDRVRAFGISAQNLAQLRETTKDNPDLYLSYYHWIRLNDQAALSRVIKAQQAGSIKDLEILASLASYYQKSDLDKAKALYLQLLDSADPDSFNPDWLLGLASIYHQQNDLEKTYLFSKANVLMTRNTASDAKMNALINGNQQLAHFLDEQADTLVEHLKNGDYASSEIRAQLNTSS", "soluble on expression in E. coli": "not soluble"}
    ]}
  ]
}
